Reference: US20210324028A1 (Pfizer, published 2021)
Residue numbers refer to the chain shown, from its start. Names may count otherwise.

B1: hIL-15 V49R/H32V (ligand)
chain: NWVNVISDLKKIEDLIQSMHIDATLYTESDVVPSCKVTAMKCFLLELQRISLESGDASIHDTVENLIILANNSLSSNGNVTESGCKECEELEEKNIKEFLQSFVHIVQMFINTGGGGSGHHHHHHHHGGGLNDIFEAQKIEWHE
B2: hIL-15 V49R/I68A (ligand)
chain: B1 chain with V32H, I68A
B3: hIL-15 V49R/I68F (ligand)
chain: B1 chain with V32H, I68F
B4: hIL-15 V49R/I68H (ligand)
chain: B1 chain with V32H, I68H
B5: hIL-15 V49R/I68L (ligand)
chain: B1 chain with V32H, I68L
B6: hIL-15 V49R/I68M (ligand)
chain: B1 chain with V32H, I68M
B7: hIL-15 V49R/I68N (ligand)
chain: B1 chain with V32H, I68N
B8: hIL-15 V49R/I68R (ligand)
chain: B1 chain with V32H, I68R
B9: hIL-15 V49R/I68T (ligand)
chain: B1 chain with V32H, I68T
B10: hIL-15 V49R/I68V (ligand)
chain: B1 chain with V32H, I68V
B11: hIL-15 V49R/I68Y (ligand)
chain: B1 chain with V32H, I68Y
B12: hIL-15 V49R/I111A (ligand)
chain: B1 chain with V32H, I111A
B13: hIL-15 V49R/I111D (ligand)
chain: B1 chain with V32H, I111D
B14: hIL-15 V49R/I111K (ligand)
chain: B1 chain with V32H, I111K
B15: hIL-15 V49R/I111S (ligand)
chain: B1 chain with V32H, I111S
B16: hIL-15 V49R/K10A (ligand)
chain: B1 chain with K10A, V32H
B17: hIL-15 V49R/K10D (ligand)
chain: B1 chain with K10D, V32H
B18: hIL-15 V49R/K10E (ligand)
chain: B1 chain with K10E, V32H
B19: hIL-15 V49R/K10G (ligand)
chain: B1 chain with K10G, V32H
B20: hIL-15 V49R/K10H (ligand)
chain: B1 chain with K10H, V32H
B21: hIL-15 V49R/K10L (ligand)
chain: B1 chain with K10L, V32H
B22: hIL-15 V49R/K10M (ligand)
chain: B1 chain with K10M, V32H
B23: hIL-15 V49R/K10N (ligand)
chain: B1 chain with K10N, V32H
B24: hIL-15 V49R/K10Q (ligand)
chain: B1 chain with K10Q, V32H
B25: hIL-15 V49R/K10R (ligand)
chain: B1 chain with K10R, V32H
B26: hIL-15 V49R/K10S (ligand)
chain: B1 chain with K10S, V32H
B27: hIL-15 V49R/K10W (ligand)
chain: B1 chain with K10W, V32H
B28: hIL-15 V49R/K11A (ligand)
chain: B1 chain with K11A, V32H
B29: hIL-15 V49R/K11D (ligand)
chain: B1 chain with K11D, V32H
B30: hIL-15 V49R/K11E (ligand)
chain: B1 chain with K11E, V32H
B31: hIL-15 V49R/K11H (ligand)
chain: B1 chain with K11H, V32H
B32: hIL-15 V49R/K11I (ligand)
chain: B1 chain with K11I, V32H
B33: hIL-15 V49R/K11L (ligand)
chain: B1 chain with K11L, V32H
B34: hIL-15 V49R/K11N (ligand)
chain: B1 chain with K11N, V32H
B35: hIL-15 V49R/K11Q (ligand)
chain: B1 chain with K11Q, V32H
B36: hIL-15 V49R/K11R (ligand)
chain: B1 chain with K11R, V32H
B37: hIL-15 V49R/K11S (ligand)
chain: B1 chain with K11S, V32H
B38: hIL-15 V49R/K11T (ligand)
chain: B1 chain with K11T, V32H
B39: hIL-15 V49R/K11V (ligand)
chain: B1 chain with K11V, V32H
B40: hIL-15 V49R/K11Y (ligand)
chain: B1 chain with K11Y, V32H
B41: hIL-15 V49R/L69A (ligand)
chain: B1 chain with V32H, L69A
B42: hIL-15 V49R/L69D (ligand)
chain: B1 chain with V32H, L69D
B43: hIL-15 V49R/L69E (ligand)
chain: B1 chain with V32H, L69E
B44: hIL-15 V49R/L69I (ligand)
chain: B1 chain with V32H, L69I
B45: hIL-15 V49R/L69M (ligand)
chain: B1 chain with V32H, L69M
B46: hIL-15 V49R/L69S (ligand)
chain: B1 chain with V32H, L69S
B47: hIL-15 V49R/L69T (ligand)
chain: B1 chain with V32H, L69T
B48: hIL-15 V49R/L69V (ligand)
chain: B1 chain with V32H, L69V
B49: hIL-15 V49R/M109A (ligand)
chain: B1 chain with V32H, M109A
B50: hIL-15 V49R/M109D (ligand)
chain: B1 chain with V32H, M109D
B51: hIL-15 V49R/M109K (ligand)
chain: B1 chain with V32H, M109K
B52: hIL-15 V49R/M109S (ligand)
chain: B1 chain with V32H, M109S

Biological target: T1, human IL-2Rβ (human, UniProt P14784 27-240, limits assumed)
T1 construct: also called hIL-2Rβ; IL-2 receptor beta
T1 sequence (looked up): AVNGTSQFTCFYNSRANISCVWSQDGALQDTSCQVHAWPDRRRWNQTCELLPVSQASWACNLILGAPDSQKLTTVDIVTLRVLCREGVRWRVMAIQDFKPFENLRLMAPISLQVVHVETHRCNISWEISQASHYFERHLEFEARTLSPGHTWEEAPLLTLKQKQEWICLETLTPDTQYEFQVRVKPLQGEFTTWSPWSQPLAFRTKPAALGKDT
Assay: SPR, steady state

Point of comparison: B36, Kd 138 nM. Against it:
- B1 — 1.8-fold higher, 247 nM
- B2 — higher, > 500 nM
- B3 — higher, > 1000 nM
- B4 — higher, > 1000 nM
- B5 — 1.8-fold higher, 245 nM
- B6 — higher, > 1000 nM
- B7 — higher, > 1000 nM
- B8 — higher, > 500 nM
- B9 — higher, > 500 nM
- B10 — 2.1-fold higher, 296 nM
- B11 — higher, > 1000 nM
- B12 — 2.7-fold higher, 375 nM
- B13 — higher, > 500 nM
- B14 — 2.9-fold higher, 397 nM
- B15 — higher, > 500 nM
- B16 — 2.3-fold higher, 321 nM
- B17 — higher, > 500 nM
- B18 — 2.6-fold higher, 360 nM
- B19 — higher, > 500 nM
- B20 — within 1.5-fold, 114 nM
- B21 — 2.5-fold higher, 348 nM
- B22 — 2.8-fold higher, 391 nM
- B23 — 1.7-fold higher, 230 nM
- B24 — 1.8-fold higher, 250 nM
- B25 — within 1.5-fold, 146 nM
- B26 — 3.6-fold higher, 496 nM
- B27 — within 1.5-fold, 185 nM
- B28 — within 1.5-fold, 206 nM
- B29 — higher, > 500 nM
- B30 — within 1.5-fold, 160 nM
- B31 — within 1.5-fold, 104 nM
- B32 — 1.8-fold lower, 76 nM
- B33 — within 1.5-fold, 92.2 nM
- B34 — 2.1-fold higher, 291 nM
- B35 — within 1.5-fold, 107 nM
- B37 — 3.3-fold higher, 453 nM
- B38 — 1.6-fold higher, 225 nM
- B39 — within 1.5-fold, 110 nM
- B40 — within 1.5-fold, 143 nM
- B41 — higher, > 500 nM
- B42 — higher, > 500 nM
- B43 — higher, > 1000 nM
- B44 — 2.2-fold higher, 306 nM
- B45 — higher, > 1000 nM
- B46 — higher, > 500 nM
- B47 — higher, > 1000 nM
- B48 — higher, > 1000 nM
- B49 — higher, > 500 nM
- B50 — 2.5-fold higher, 339 nM
- B51 — higher, > 500 nM
- B52 — 2.6-fold higher, 362 nM

Biological target: T2, human IL-15Rα (human, UniProt Q13261 31-205, limits assumed)
T2 construct: also called hIL-15Rα; IL-15 receptor alpha
T2 sequence (Q13261 31-205 limits assumed): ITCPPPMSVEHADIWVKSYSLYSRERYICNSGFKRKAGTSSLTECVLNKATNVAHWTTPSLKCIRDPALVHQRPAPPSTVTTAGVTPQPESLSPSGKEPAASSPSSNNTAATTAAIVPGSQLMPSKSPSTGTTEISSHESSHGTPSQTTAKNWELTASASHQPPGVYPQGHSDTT
Assay: SPR, steady state

Point of comparison: B27, Kd 101 nM. Against it:
- B1 — within 1.5-fold, 99.8 nM
- B2 — within 1.5-fold, 113 nM
- B3 — within 1.5-fold, 78.5 nM
- B4 — within 1.5-fold, 87.6 nM
- B5 — within 1.5-fold, 73.6 nM
- B6 — within 1.5-fold, 96.2 nM
- B7 — within 1.5-fold, 85 nM
- B8 — within 1.5-fold, 102 nM
- B9 — within 1.5-fold, 76.3 nM
- B10 — within 1.5-fold, 104 nM
- B11 — within 1.5-fold, 92.9 nM
- B12 — 1.7-fold higher, 173 nM
- B13 — 2.1-fold higher, 214 nM
- B14 — 2-fold higher, 199 nM
- B15 — 2.2-fold higher, 223 nM
- B16 — within 1.5-fold, 150 nM
- B17 — 2.7-fold higher, 270 nM
- B18 — within 1.5-fold, 126 nM
- B19 — 2.1-fold higher, 209 nM
- B20 — within 1.5-fold, 85.6 nM
- B21 — within 1.5-fold, 124 nM
- B22 — within 1.5-fold, 122 nM
- B23 — within 1.5-fold, 128 nM
- B24 — within 1.5-fold, 100 nM
- B25 — within 1.5-fold, 94.5 nM
- B26 — 1.9-fold higher, 195 nM
- B28 — 1.9-fold higher, 191 nM
- B29 — 2.4-fold higher, 242 nM
- B30 — 1.6-fold higher, 159 nM
- B31 — within 1.5-fold, 147 nM
- B32 — within 1.5-fold, 95.8 nM
- B33 — within 1.5-fold, 142 nM
- B34 — 2.1-fold higher, 217 nM
- B35 — 1.5-fold higher, 156 nM
- B36 — within 1.5-fold, 140 nM
- B37 — 1.9-fold higher, 194 nM
- B38 — 1.7-fold higher, 169 nM
- B39 — within 1.5-fold, 142 nM
- B40 — 2.2-fold higher, 219 nM
- B41 — within 1.5-fold, 82.9 nM
- B42 — 1.5-fold lower, 65.6 nM
- B43 — 2.1-fold lower, 47.8 nM
- B44 — within 1.5-fold, 93.1 nM
- B45 — within 1.5-fold, 74.5 nM
- B46 — within 1.5-fold, 78.2 nM
- B47 — 1.6-fold lower, 63.6 nM
- B48 — within 1.5-fold, 85.5 nM
- B49 — 2-fold higher, 198 nM
- B50 — 2.9-fold higher, 288 nM
- B51 — 2.1-fold higher, 215 nM
- B52 — 1.9-fold higher, 190 nM
